Reference: US20250340655A1, “EPHA2-TARGETING ANTIBODIES AND THEIR APPLICATIONS IN CANCER TREATMENT” (TAIPEI MEDICAL UNIVERSITY, priority 2022, published 2025)

T1: EphA8 overexpressed on 293T cells (UniProt P29322 28-1005, limits assumed)
T1 construct: whole, on cells
T1 sequence (looked up): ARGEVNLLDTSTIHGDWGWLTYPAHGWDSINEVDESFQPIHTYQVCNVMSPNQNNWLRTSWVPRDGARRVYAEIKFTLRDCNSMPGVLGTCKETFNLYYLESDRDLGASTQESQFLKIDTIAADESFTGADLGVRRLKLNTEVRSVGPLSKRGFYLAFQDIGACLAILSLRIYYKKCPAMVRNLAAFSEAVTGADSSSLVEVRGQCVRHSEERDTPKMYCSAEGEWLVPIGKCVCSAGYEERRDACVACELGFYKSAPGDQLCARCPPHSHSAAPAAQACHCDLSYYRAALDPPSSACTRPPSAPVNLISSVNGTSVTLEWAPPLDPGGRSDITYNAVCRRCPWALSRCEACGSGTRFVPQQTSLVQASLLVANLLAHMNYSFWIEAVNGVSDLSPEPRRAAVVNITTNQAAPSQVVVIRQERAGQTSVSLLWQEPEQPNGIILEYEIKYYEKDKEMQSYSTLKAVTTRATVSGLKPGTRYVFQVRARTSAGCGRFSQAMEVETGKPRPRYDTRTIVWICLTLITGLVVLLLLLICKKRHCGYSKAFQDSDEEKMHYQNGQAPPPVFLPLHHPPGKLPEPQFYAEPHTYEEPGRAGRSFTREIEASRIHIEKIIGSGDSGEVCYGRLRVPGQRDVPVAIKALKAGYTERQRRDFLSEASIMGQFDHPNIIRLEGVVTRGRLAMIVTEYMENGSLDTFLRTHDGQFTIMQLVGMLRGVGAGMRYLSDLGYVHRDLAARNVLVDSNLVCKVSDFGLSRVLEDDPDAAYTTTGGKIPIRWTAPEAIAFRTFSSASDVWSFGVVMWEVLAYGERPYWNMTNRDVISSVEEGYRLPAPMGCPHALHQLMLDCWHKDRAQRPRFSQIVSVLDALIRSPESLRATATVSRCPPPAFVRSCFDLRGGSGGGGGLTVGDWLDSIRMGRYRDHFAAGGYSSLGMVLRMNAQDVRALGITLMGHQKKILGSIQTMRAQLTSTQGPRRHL


How the values were obtained:
[1] = target: T1, EphA8 overexpressed on 293T cells; assay: flow cytometry on 293T cells overexpressing EphA1-A8
Description: (§1) To detect the binding specificity of scFv, 293T cells were transformed with EphA1-A8 plasmids individually for overexpression of different EphA molecules. The cell line was freshly prepared and washed with FACS buffer (2% FBS in PBS). The cells were seeded at 1×10⁵ cells/well into a 96-well Ubottom plate and incubated with scFv for 1 h at 4° C. After the plate was washed with FACS buffer, the anti-hemagglutinin (HA) antibody was added for scFv binding detection (scFv was fused with a HA tag) and subsequently developed using an FITC-conjugated secondary antibody. Finally, the cell binding signal was analyzed using a FACS can flow cytometer.

[2] = target: T2, EphA4 overexpressed on 293T cells (UniProt P54764 20-986, limits assumed); assay: as above
T2 construct: whole, on cells
T2 sequence (P54764 20-986 limits assumed): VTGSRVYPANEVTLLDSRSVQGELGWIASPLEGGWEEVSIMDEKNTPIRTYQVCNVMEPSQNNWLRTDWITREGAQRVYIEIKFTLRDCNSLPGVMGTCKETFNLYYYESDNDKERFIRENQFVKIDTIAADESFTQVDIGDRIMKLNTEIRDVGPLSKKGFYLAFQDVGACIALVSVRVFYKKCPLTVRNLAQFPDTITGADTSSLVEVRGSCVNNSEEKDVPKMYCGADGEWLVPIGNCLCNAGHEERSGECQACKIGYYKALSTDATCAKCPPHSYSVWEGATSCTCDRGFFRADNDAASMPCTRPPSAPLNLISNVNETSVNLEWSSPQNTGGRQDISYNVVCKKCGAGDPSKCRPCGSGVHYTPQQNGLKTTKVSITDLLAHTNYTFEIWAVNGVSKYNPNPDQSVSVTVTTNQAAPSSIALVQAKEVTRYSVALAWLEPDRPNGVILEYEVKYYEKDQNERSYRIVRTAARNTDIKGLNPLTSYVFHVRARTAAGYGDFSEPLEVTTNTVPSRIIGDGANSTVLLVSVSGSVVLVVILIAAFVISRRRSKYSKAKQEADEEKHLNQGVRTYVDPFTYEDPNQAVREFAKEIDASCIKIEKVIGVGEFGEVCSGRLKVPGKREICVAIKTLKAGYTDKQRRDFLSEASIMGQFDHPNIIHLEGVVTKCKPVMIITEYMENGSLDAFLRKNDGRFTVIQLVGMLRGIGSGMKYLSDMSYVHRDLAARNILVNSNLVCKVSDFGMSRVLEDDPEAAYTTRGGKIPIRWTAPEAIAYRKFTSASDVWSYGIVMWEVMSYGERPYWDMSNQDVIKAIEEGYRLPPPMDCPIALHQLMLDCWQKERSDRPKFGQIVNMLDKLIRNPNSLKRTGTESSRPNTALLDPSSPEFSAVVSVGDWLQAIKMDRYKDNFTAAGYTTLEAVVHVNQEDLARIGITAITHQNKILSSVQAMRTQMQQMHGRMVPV
Description: as §1

HCT116, SW480 and SW460 = assay: MTS growth inhibition, colon cancer cells; type: cell-based; settings: 3 days (FIG. 18C)
Description: The growth inhibitory effect of hSD5-ADC on the three strains of colon cancer cells were tested under different concentrations. At indicated concentrations interacted with the cancer cells for 3 days, and the effects on the growth of cancer cells were observed by MTS assay. (FIG. 18C)

[3] = test system: hTERT HPNE, AsPC-1, BxPc-3, and Mia PaCa-2; assay: Growth inhibitory response of pancreatic cell lines to serially diluted hSD5-ADC; type: cell-based, human; settings: serial dilution (FIGS. 11A-11D)
[4] = target: T3, endogenous EphA2 molecule on colon cancer cells (HCT116, SW480 and SW460) (Homo sapiens, UniProt P29317); assay: Flow cytometry binding on colon cancer cells; settings: flow cytometry (FIG. 18B)
T3 construct: endogenous in cells; host or cells: HCT116, SW480, SW460
T3 sequence (P29317 24-976): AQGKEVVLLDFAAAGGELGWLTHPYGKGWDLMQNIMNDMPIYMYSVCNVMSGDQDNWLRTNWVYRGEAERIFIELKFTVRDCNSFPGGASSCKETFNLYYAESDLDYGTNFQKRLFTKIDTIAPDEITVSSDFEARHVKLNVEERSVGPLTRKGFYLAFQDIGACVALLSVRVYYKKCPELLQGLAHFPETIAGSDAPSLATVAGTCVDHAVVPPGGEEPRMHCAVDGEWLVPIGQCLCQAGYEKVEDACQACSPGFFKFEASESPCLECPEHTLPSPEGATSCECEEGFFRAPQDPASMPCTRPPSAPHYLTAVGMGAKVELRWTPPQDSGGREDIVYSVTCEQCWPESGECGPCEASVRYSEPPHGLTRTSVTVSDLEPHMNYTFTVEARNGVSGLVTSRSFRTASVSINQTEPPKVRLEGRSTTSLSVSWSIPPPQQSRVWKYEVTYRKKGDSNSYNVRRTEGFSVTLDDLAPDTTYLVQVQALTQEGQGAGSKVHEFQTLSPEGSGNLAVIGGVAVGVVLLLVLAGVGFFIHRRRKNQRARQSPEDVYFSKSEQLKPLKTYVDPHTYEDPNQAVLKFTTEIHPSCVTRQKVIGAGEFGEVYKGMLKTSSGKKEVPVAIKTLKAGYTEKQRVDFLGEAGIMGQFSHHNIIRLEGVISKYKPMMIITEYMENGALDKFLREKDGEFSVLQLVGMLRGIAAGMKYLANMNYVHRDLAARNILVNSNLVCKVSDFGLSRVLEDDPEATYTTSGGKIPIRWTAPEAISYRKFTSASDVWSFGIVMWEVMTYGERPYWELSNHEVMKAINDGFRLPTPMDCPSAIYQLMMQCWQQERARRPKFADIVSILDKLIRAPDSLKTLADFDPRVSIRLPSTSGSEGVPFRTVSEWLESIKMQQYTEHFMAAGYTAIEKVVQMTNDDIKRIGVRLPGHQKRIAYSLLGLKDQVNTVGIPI

SNU-16, N87 and MKN-45 = assay: MTS growth inhibition, gastric cancer cells; type: cell-based; settings: 3 days (FIG. 15B)
Description: The growth inhibitory effect of hSD5-ADC on the three strains of gastric cancer cells were tested under different concentrations. At indicated concentrations interacted with the cancer cells for 3 days, and the effects on the growth of cancer cells were observed by MTS assay. […] (FIG. 15B)

[5] = test system: EphA2pep_P1, EphA2pep_P2, EphA2pep_PIP2 synthetic peptides; assay: Peptide ELISA for epitope definition; type: binding
Source text: We used peptide enzyme-linked immunosorbent assay (ELISA) to identify the designed epitope on EphA2; the BSA-conjugated peptides EphA2pep_P1 (BSA-[…]) and EphA2pep_P2 (BSA-[…]) each represent the two segments of the linear epitope designed on EphA2. EphA2pep_PIP2 (BSA-[…]) represents the two linear epitope sequences connected by a linker. These peptides were synthesized and conjugated with BSA (Kelowna International Scientific). The BSA-conjugated peptides were individually coated on a 96-well microplate at 4° C. overnight. After the wells were blocked with 3% BSA, IgG hSD5 was added and incubated. Next, an HRP-conjugated anti-HA tag antibody (Cell Signaling Technology) was used to detect bound scFv. Finally, the TMB substrate was added for development, and the reaction was stopped by adding 1 N HCl. Absorbance was measured by determining the OD at 450 nm. A dot blot assay was used to detect the binding of IgG hSD5 to the synthesized peptides; […] of individual peptides (1 mg/mL; in triplicate) were dropped on the NC membrane and maintained at RT for complete absorption. Blocking with 3% BSA was performed at RT for 1 h. Then, IgG hSD5 (10 μg/mL) was added, and the reaction was allowed to proceed for 1 h at RT. After the membrane was washed, the HRP-conjugated anti-HA tag antibody was added, and the reaction was allowed to proceed for 1 h at RT. Lastly, DAB was used to initiate the coloration reaction.
To determine whether the antibody hSD5 can recognize two antigen fragments simultaneously, peptide synthesis of the two antigen fragments was performed to test the binding reaction of antibody IgG hSD5. The ELISA was used to test the binding reactivity of the antibody hSD5 to synthetic peptides. The two short peptides located on the designed activation site of EphA2 are EphA2pep_P1 and EphA2pep_P2, respectively. The long peptide formed by linking the two short peptides is EphA2pep_PIP2. NCIpep and NC2pep are two irrelevant peptides as the negative control. EphA2 ECD is a recombinant EphA2 extracellular domain protein.

Row | binding result [1] | binding result [2] | binding response to EphA2 molecules on cancer cells [4] | binding to long peptide EphA2pep_PIP2 ([5]; peptide ELISA (FIG. 9A)) | binding to short peptides EphA2pep_P1 and EphA2pep_P2 ([5]; peptide ELISA (FIG. 9A)) | cross-binding to two irrelevant peptides ([5]; peptide ELISA, NC peptides (FIG. 9A)) | Molecule | growth inhibitory response of colon cancer cells (HCT116, SW480 and SW460) | growth inhibitory response of pancreatic cell lines [3] | growth inhibitory response of gastric cancer cells (SNU-16, N87 and MKN-45) | interaction with EphA2pep_P1 compared with EphA2pep_P2 ([5]; peptide ELISA (FIG. 9A))
1 | no binding | no binding | – | – | – | – | Humanized scFv hSD5 (scFv, also called hSD5 scFv; Humanized scFv hSDS) scFv: LTQPPSVSVSPGQTVRITCSGSSGSYGWYQQKSPGQAPVTLIYDNDKRPSGIPERFSGSSSGSTSTLTISGVQAEDEADYYCGSADSSTYVGMFGGGTKLTVLGQSSRSSQVQLVESGGGLVQPGGSLRLSCAASGFTFSDYGMGWVRQAPGKGLEWVAGISAAGSFTPYGAAVKGRFTISRDNSKNTVYLQMNSLRAEDTAVYYCARIPSGYRAGEIYTWGQGTLVTVSS | – | – | – | –
2 | – | – | significant binding response | exhibited a binding response | individually recognized | did not exhibit a cross-binding reaction | IgG hSD5: complete humanized anti-EphA2 IgG (IgG1) of hSD5 (antibody, V domains shown) VH: QVQLVESGGGLVQPGGSLRLSCAASGFTFSDYGMGWVRQAPGKGLEWVAGISAAGSFTPYGAAVKGRFTISRDNSKNTVYLQMNSLRAEDTAVYYCARIPSGYRAGEIYTWGQGTLVTVSS VL: LTQPPSVSVSPGQTVRITCSGSSGSYGWYQQKSPGQAPVTLIYDNDKRPSGIPERFSGSSSGSTSTLTISGVQAEDEADYYCGSADSSTYVGMFGGGTKLTVL | does not provide ideal inhibition effect | does not provide ideal inhibition effect | does not provide ideal inhibition effect | stronger
